From PMC4718629, “Molecular Determinants of GS-9620-Dependent TLR7 Activation” (PLoS ONE, 2016)

Target: the molecule itself
Assay: SEC; purified recombinant full-length TLR7 run against calibration standards (670, 158, 44, 17 and 1.35 kDa); solubilized with Fos-Choline 14

B1: full-length recombinant human TLR7 (residues 27-1049) with N-terminal 6HIS tag (receptor, UniProt Q9NYK1 27-1049, looked up)
chain: ARWFPKTLPCDVTLDVPKNHVIVDCTDKHLTEIPGGIPTNTTNLTLTINHIPDISPASFHRLDHLVEIDFRCNCVPIPLGSKNNMCIKRLQIKPRSFSGLTYLKSLYLDGNQLLEIPQGLPPSLQLLSLEANNIFSIRKENLTELANIEILYLGQNCYYRNPCYVSYSIEKDAFLNLTKLKVLSLKDNNVTAVPTVLPSTLTELYLYNNMIAKIQEDDFNNLNQLQILDLSGNCPRCYNAPFPCAPCKNNSPLQIPVNAFDALTELKVLRLHSNSLQHVPPRWFKNINKLQELDLSQNFLAKEIGDAKFLHFLPSLIQLDLSFNFELQVYRASMNLSQAFSSLKSLKILRIRGYVFKELKSFNLSPLHNLQNLEVLDLGTNFIKIANLSMFKQFKRLKVIDLSVNKISPSGDSSEVGFCSNARTSVESYEPQVLEQLHYFRYDKYARSCRFKNKEASFMSVNESCYKYGQTLDLSKNSIFFVKSSDFQHLSFLKCLNLSGNLISQTLNGSEFQPLAELRYLDFSNNRLDLLHSTAFEELHKLEVLDISSNSHYFQSEGITHMLNFTKNLKVLQKLMMNDNDISSSTSRTMESESLRTLEFRGNHLDVLWREGDNRYLQLFKNLLKLEELDISKNSLSFLPSGVFDGMPPNLKNLSLAKNGLKSFSWKKLQCLKNLETLDLSHNQLTTVPERLSNCSRSLKNLILKNNQIRSLTKYFLQDAFQLRYLDLSSNKIQMIQKTSFPENVLNNLKMLLLHHNRFLCTCDAVWFVWWVNHTEVTIPYLATDVTCVGPGAHKGQSVISLDLYTCELDLTNLILFSLSISVSLFLMVMMTASHLYFWDVWYIYHFCKAKIKGYQRLISPDCCYDAFIVYDTKDPAVTEWVLAELVAKLEDPREKHFNLCLEERDWLPGQPVLENLSQSIQLSKKTVFVMTDKYAKTENFKIAFYLSHQRLMDEKVDVIILIFLEKPFQKSKFLQLRKRLCGSSVLEWPTNPQAHPYFWQCLKNALATDNHVAYSQVFKETV
notes: human Toll-like receptor 7 (TLR7), residues 27-1049; also called recTLR7; recombinant TLR7
  stoichiometry N: 2
